Results reported in patent US20220153832A1 (PIONYR IMMUNOTHERAPEUTICS, published 2022).
Where a chain is given by its changes, count along the chain named. Each block holds one binder with its values, some of them ahead of it.

Columns and labels:
[1] = target: T1, Human Macrophage Receptor with Collagenous Structure (MARCO), full length, on cells (human, UniProt Q9UEW3 1-520); assay: flow cytometry, 293T (HuMARCO)
T1 construct: the cell type is named under assay; also called huMARCO; HuMARCO
T1 sequence: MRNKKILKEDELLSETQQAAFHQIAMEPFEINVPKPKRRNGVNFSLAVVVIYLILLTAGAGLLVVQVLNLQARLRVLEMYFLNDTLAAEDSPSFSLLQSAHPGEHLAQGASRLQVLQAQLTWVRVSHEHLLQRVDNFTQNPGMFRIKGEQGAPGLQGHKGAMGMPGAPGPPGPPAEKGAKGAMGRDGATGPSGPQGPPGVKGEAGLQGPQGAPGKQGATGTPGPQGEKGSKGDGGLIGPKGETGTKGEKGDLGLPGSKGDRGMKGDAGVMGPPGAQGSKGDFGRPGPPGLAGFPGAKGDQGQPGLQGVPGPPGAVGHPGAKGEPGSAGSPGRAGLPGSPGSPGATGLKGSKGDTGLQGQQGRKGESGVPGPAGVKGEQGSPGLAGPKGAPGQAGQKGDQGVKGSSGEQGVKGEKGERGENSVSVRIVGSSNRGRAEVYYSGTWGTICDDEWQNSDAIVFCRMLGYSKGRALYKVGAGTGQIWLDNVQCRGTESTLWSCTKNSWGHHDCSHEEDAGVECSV
Procedure: (§1) Supernatants were removed and cell pellets were resuspended in Ca²⁺+ and Mg²⁺+ Dulbecco's phosphate-buffered saline (D-PBS) at 1×10⁶ cells/ml. 100,000 cells/well were plated onto U-bottom 96-well plates for staining and all centrifugation steps were performed at 1500 rpm at 4° C. for 5 min and samples were kept protected from light throughout the protocol. Cells were pelleted and resuspended in 100 μl of Zombie NIR viability dye (BioLegend) prepared by diluting Zombie NIR dimethyl sulfoxide (DMSO) stock 1000-fold in D-PBS. Cells were stained by incubation for 10 min at room temperature (RT) in the dark, followed by quenching the staining reaction with the addition of 100 μl of Staining Medium (D-PBS containing 2% FBS and 2 mM ethylenediaminetetraacetic acid (EDTA). Cells were pelleted and resuspended in 100 μl of the different antibodies and hybridomas supernatants needed for screening and corresponding isotype controls in freshly prepared staining medium, such as PI-M014 and mIgG2b isotype. All mAbs were tested at the final top concentration of 100 nM (15 μg/ml) followed by an 8-point three-fold serial dilution, including 0 mg/ml control. Staining was carried out for 1 hour (hr) on ice, followed by 2 washes in Staining Medium. Cells were then pelleted and resuspended in 100 μl of allophycocyanin (APC)-conjugated goat anti-mouse IgG (Fc-specific) secondary antibody, prepared by 500-fold dilution of the antibody stocks in Staining Medium, and incubated for 30 min on ice. Plates were then washed two times with Staining Medium, followed by resuspension in 150 μl of the same buffer for acquisition on the flow cytometer (Attune NxT, Life Technologies). Flow cytometry data were analyzed using FlowJo software (version 10.6.1) and data were processed and further analyzed in Microsoft Excel and GraphPad Prism software (version 8). Half-maximal effective concentrations (EC₅₀) were calculated based on geometric mean fluorescence intensities (gMFI). In case when the plates were not able to be analyzed on the cytometer, cells were pelleted after the washes and fixed in 100 μl of 2% paraformaldehyde (PFA), prepared by diluting the 16% (w/v) stock (Thermo Fisher) in DPBS, for 15 min at RT. Cells were then pelleted and the fixative was removed, followed by resuspension in 150 μl of Staining Medium and stored at 4° C. until acquisition on the flow cytometer.

[2] = target: T2, N-terminally polyhistidine tagged human MARCO ECD (147-520), recombinant (human, UniProt Q9UEW3 147-520); assay: ELISA on recombinant human MARCO, 50 mM EDTA
T2 construct: also called PI-RG-3000; recombinant human MARCO; not shown: N-terminal polyhistidine tag
T2 sequence: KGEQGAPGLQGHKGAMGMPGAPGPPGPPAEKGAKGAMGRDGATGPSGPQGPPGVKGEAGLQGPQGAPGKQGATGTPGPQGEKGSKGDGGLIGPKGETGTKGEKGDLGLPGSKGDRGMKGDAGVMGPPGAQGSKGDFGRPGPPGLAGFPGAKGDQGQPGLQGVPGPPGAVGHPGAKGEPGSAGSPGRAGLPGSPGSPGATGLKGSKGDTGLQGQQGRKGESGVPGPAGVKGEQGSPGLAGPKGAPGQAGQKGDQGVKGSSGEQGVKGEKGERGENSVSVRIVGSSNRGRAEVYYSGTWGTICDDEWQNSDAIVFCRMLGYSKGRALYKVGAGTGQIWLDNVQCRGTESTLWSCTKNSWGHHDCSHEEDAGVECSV
Procedure: (§2) After the plates were incubated at room temperature for 1 hour or 4° C. overnight, the plates were wash 3 times with ELISA wash buffer (PBS/0.05% TWEEN-20), then hybridoma supernatant (1:5 dilution) or purified antibody (1 ug) was diluted in DPBS/Ca2+/2% FBS, DPBS without Ca2+/2 mM EDTA/2% FBS, DPBS without Ca2+/10 mM EDTA/2% FBS, and DPBS without Ca2+/50 mM EDTA/2% FBS. Plates again were incubated at room temperature for 1 hour.

[3] = target: T2, N-terminally polyhistidine tagged human …; assay: ELISA on recombinant human MARCO, 0 mM EDTA
Procedure: as §2

[4] = target: T2, N-terminally polyhistidine tagged human …; assay: label-free kinetics (ProbeLife Gator), mAb captured, human MARCO
Procedure: (§3) The kinetics assay used either anti-mouse Fc or anti-human Fc probes to capture the anti-MARCO antibodies onto the probe, and then a five-step kinetic protocol was used to measure the affinity of the antibodies to the antigen, including the following steps: baseline, loading, baseline, association, and dissociation. The kinetics buffer (K buffer) provided by ProbeLife was used to establish the baseline for 60 seconds, and then the anti-mFc or anti-hFc probes were loaded with 200 nM of the antibodies for 120s until the capture reached saturation, measurement of the baseline in K buffer was performed for another 60s, followed by the association step using 200 nM antigen (human MARCO, mouse MARCO or cyno MARCO), and the dissociation step performed in K buffer for 5-10 minutes. The assay was done at 37° C. to maximize antibody:antigen dissociation.
Kinetics and epitope binning analysis of the newly generated anti-human MARCO antibodies was performed as described in Example 3.

[5] = target: T2, N-terminally polyhistidine tagged human …; assay: ELISA on recombinant human MARCO, 2 mM EDTA
Procedure: as §2

[6] = target: T3, Cynomolgus MARCO, full length, on cells (cynomolgus, UniProt A0A2K5X0Z2 1-519); assay: flow cytometry, 293T (CyMARCO)
T3 construct: whole, on cells; also called cyno MARCO; CyMARCO
T3 sequence: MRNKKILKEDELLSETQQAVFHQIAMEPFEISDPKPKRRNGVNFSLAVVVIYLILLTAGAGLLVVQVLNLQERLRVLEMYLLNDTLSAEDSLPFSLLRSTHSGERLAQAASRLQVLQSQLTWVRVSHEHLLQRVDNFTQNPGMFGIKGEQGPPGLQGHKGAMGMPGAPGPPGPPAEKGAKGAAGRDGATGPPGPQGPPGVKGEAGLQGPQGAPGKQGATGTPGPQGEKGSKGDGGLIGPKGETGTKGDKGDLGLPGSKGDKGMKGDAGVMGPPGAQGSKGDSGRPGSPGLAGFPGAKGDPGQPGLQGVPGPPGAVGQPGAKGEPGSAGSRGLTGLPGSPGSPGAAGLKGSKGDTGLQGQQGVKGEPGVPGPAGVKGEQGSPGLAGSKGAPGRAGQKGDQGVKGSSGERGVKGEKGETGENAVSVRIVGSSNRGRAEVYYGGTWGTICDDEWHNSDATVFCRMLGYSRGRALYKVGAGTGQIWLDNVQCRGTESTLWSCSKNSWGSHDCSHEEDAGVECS
Procedure: as §1, with “Plates were then washed two times with Staining Medium, followed by resuspension in 150 μl of the same buffer for acquisition on the flow cytometer (Attune NxT, Life Technologies).” left out, “Cells were then pelleted and the fixative was removed, followed by resuspension in 150 μl of Staining Medium and stored at 4° C. until acquisition on the flow cytometer.” left out

[7] = target: T2, N-terminally polyhistidine tagged human …; assay: ELISA on recombinant human MARCO, 10 mM EDTA
Procedure: as §2

hVar3 (RG3036) = target: T4, hVar3 (RG3036) (human, UniProt Q9UEW3 147-520); assay: ELISA on hVar3
T4 construct: Human MARCO His-CLD-SRCR with Q452D, Y472S and K473S (already in the entry); also called recombinant human SRCR MARCO hVar3 protein

[8] = target: T2, N-terminally polyhistidine tagged human …; assay: KD (nM) Human; method not given
[9] = target: T3, Cynomolgus MARCO, full length, on cells; assay: flow cytometry, cells overexpressing cyno MARCO
[10] = target: T2, N-terminally polyhistidine tagged human …; assay: ProbeLife Gator
Procedure: as §3

[11] = target: T1, Human Macrophage Receptor with …; assay: flow cytometry, cells overexpressing human MARCO
Procedure: as §1, with “Plates were then washed two times with Staining Medium, followed by resuspension in 150 μl of the same buffer for acquisition on the flow cytometer (Attune NxT, Life Technologies).” left out, “Cells were then pelleted and the fixative was removed, followed by resuspension in 150 μl of Staining Medium and stored at 4° C. until acquisition on the flow cytometer.” left out

[12] = target: T5, chimera Mouse MARCO CLD-human MARCO SRCR, on cells; assay: flow cytometry, cells overexpressing HuSRCR-mouse CLD chimera
T5 chain: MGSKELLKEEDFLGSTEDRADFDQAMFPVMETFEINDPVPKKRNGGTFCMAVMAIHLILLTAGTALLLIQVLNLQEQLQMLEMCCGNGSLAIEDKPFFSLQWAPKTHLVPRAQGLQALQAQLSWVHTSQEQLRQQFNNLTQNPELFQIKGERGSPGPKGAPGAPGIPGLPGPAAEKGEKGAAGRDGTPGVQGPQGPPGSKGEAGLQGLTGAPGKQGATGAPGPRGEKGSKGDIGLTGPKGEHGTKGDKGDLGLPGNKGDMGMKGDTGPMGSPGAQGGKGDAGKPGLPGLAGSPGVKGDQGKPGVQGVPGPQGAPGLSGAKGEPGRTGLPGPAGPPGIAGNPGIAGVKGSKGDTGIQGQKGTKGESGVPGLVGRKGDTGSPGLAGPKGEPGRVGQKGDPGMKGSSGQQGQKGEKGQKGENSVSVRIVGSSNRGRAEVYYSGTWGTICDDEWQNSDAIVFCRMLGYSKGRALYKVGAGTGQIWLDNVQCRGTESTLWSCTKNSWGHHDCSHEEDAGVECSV

EC50 [1]: 0.096 nM
ELISA signal (A450) [2]: 0.082
ELISA signal (A450) [3]: 1.17
koff [4]: 0.000914 s⁻¹
kon [4]: 401000 M⁻¹ s⁻¹
ELISA signal (A450) [5]: 0.0636
EC50 [6]: 0.094 nM
ELISA signal (A450) [7]: 0.0811
B1: PI-HX-3011 (antibody, rat IgG2a)
heavy: QIQLVQSGPELKKPGESVKISCKASGYTFTDYAVNWVKQAPGNGLKWMGWINTQTGKPTYADDFKQRFVFSLETSASTSFLQINNLNIEDTATYFCTRDSYYYSSSLDYWGQGVMVTVSSAETTAPSVYPLAPGTALKSNSMVTLGCLVKGYFPEPVTVTWNSGALSSGVHTFPAVLQSGLYTLTSSVTVPSSTWSSQAVTCNVAHPASSTKVDKKIVPRECNPCGCTGSEVSSVFIFPPKTKDVLTITLTPKVTCVVVDISQNDPEVRFSWFIDDVEVHTAQTHAPEKQSNSTLRSVSELPIVHRDWLNGKTFKCKVNSGAFPAPIEKSISKPEGTPRGPQVYTMAPPKEEMTQSQVSITCMVKGFYPPDIYTEWKMNGQPQENYKNTPPTMDTDGSYFLYSKLNVKKETWQQGNTFTCSVLHEGLHNHHTEKSLSHSP
light: DIQMTQSPASLSASLGETVSIECLASAGISNDLAWYQQKSGKSPQLLIYAASRLQDGVPSRFSGSGSGTRFSLKISDMQPEDEADYFCQQSYKYPWTFGGGTKLELKRADAAPTVSIFPPSTEQLATGGASVVCLMNNFYPRDISVKWKIDGTERRDGVLDSVTDQDSKDSTYSMSSTLSLTKADYESHNLYTCEVVHKTSSSPVVKSFNRNEC
notes: Parental rat hybridoma, rat IgG2a

binding result (hVar3 (RG3036)): no binding
Kd [8]: 0.44 nM
EC50 [9]: 0.38 nM
koff [10]: 0.00351 s⁻¹
EC50 [11]: 0.55 nM
EC50 [12]: 0.17 nM
B2: PI-3030-AB (antibody, human IgG1, kappa)
heavy: not shown
light: DIQMTQSPASLSASLGETVSIECLASAGISNDLAWYQQKSGKSPQLLIYAASRLQDGVPSRFSGSGSGTRFSLKISDMQPEDEADYFCQQSYKYPWTFGGGTKLELKRTVAAPSVFIFPPSDEQLKSGTASVVCLLNNFYPREAKVQWKVDNALQSGNSQESVTEQDSKDSTYSLSSTLTLSKADYEKHKVYACEVTHQGLSSPVTKSFNRGEC
notes: Human IgG1 chimera of PI-HX-3011; also called HX3011-h1 Chimera hIgG1

binding result (hVar3 (RG3036)): no binding
Kd [8]: 0.6 nM
EC50 [9]: 1.09 nM
koff [10]: 0.00281 s⁻¹
EC50 [11]: 1.6 nM
EC50 [12]: 1.07 nM
B3: PI-3031-AB (antibody, human IgG1, kappa)
heavy: not shown
light: B2 light with A25T, A27E, A50D, Q55E, F71Y, D77G, P80T, W96L, G100S, L106I
notes: Human IgG1 chimera of PI-HX-3043; also called HX3043-h1 Chimera hIgG1
